Source: the RNAGym collection of RNA variant scans (doi:10.7554/elife.90254)

B1: LINE1-full (parent)
chain: UACGUAGGUGGUUUUCCCCUGAUAGUGCUAAGGGGGCCUGGAAGUUUGGACUGGGCAGAGCUCAACACAGCGUGGCAAAGUGGCUGUGGCUAGACUGCCUCUCUGGAUUCCUCGUCACUCAGCAGGGCAUCUCUGAGAGAAAUGCC

Variants of: B1
Experiment: self-cleavage, relative activity (ratio to wild type); higher = more cleavage; in vitro, sequencing; the parent is a self-cleaving ribozyme
With U87C G114A the self-cleavage was 0.23.
U87C G114U gave a self-cleavage of 0.19.
Work on U87A A124G yielded a self-cleavage of 0.07.
With U91C G106A the self-cleavage was 0.95.
U87C A124U showed a self-cleavage of 0.33.
With U87C A124G the self-cleavage was 0.11.
For C90U U104C, the self-cleavage was 0.04.
For G89A U115C, the self-cleavage was 0.04.
In the case of U85A A94U, the self-cleavage is reported as 0.07.
U85G C113A showed a self-cleavage of 0.14.
Work on U85C C90A yielded a self-cleavage of 0.07.
In the case of U87A U143C, the self-cleavage is reported as 0.11.
With U85G U104C the self-cleavage was 0.
Work on C90G U132C yielded a self-cleavage of 0.05.
For C84G A129G, the self-cleavage was 0.2.
Work on U91C A107G yielded a self-cleavage of 0.73.
U87A G122A gave a self-cleavage of 0.09.
U87C C120U showed a self-cleavage of 0.13.
Variant G89A U119C has a self-cleavage of 0.06.
For U85A A136U, the self-cleavage was 0.19.
U87C C131U showed a self-cleavage of 0.15.
For G88U U115A, the self-cleavage was 0.07.
Work on U85G A124G yielded a self-cleavage of 0.32.
In the case of U87A A138U, the self-cleavage is reported as 0.03.
In the case of U87C C98A, the self-cleavage is reported as 0.09.
In the case of U87C C98U, the self-cleavage is reported as 0.02.
G88A U132C gave a self-cleavage of 0.09.
With G89U A92U the self-cleavage was 0.07.
Work on U85C G86U yielded a self-cleavage of 0.07.
For C84U U132C, the self-cleavage was 0.14.
U87G U100C showed a self-cleavage of 0.28.
In the case of C84G U100C, the self-cleavage is reported as 0.07.
U87A U91A showed a self-cleavage of 0.12.
In the case of U91C A138U, the self-cleavage is reported as 0.6.
In the case of G86U A138G, the self-cleavage is reported as 0.09.
Variant G86A A140U has a self-cleavage of 0.09.
With U87C A142U the self-cleavage was 0.09.
U87C A142C gave a self-cleavage of 0.24.
With G88A A141G the self-cleavage was 0.08.
U91C C95A showed a self-cleavage of 0.08.
C90U A136G gave a self-cleavage of 0.05.
With G88A G135A the self-cleavage was 0.08.
For G86A U112C, the self-cleavage was 0.08.
With U85G C118U the self-cleavage was 0.14.
Variant U87G A142G has a self-cleavage of 0.25.
Work on U85A A142C yielded a self-cleavage of 0.14.
U91A A141G showed a self-cleavage of 0.51.
For G89A A136G, the self-cleavage was 0.04.
Work on C84A U108A yielded a self-cleavage of 0.12.
In the case of G88A A140G, the self-cleavage is reported as 0.08.
Variant U87A C98U has a self-cleavage of 0.05.
For U85C U91A, the self-cleavage was 0.14.
U87C C146U showed a self-cleavage of 0.34.
With G88A A124G the self-cleavage was 0.06.
Work on U87A U108C yielded a self-cleavage of 0.11.
With U87A U108A the self-cleavage was 0.06.
U87A A142G showed a self-cleavage of 0.07.
Work on U87G A124U yielded a self-cleavage of 0.17.
With U87G A124G the self-cleavage was 0.31.
Work on C90U U96A yielded a self-cleavage of 0.06.
Variant U91A U115C has a self-cleavage of 0.78.
For U85A U112C, the self-cleavage was 0.04.
Variant U87A G106A has a self-cleavage of 0.06.
For U87A G106C, the self-cleavage was 0.08.
Work on U85C U119A yielded a self-cleavage of 0.25.
With U85C U119C the self-cleavage was 0.28.
Work on U85C A117U yielded a self-cleavage of 0.19.
U85C A117G showed a self-cleavage of 0.15.
For U85C U130A, the self-cleavage was 0.35.
Variant U85C U130C has a self-cleavage of 0.23.
G86U A124G gave a self-cleavage of 0.07.
In the case of G88A A92G, the self-cleavage is reported as 0.02.
Variant C84U A94G has a self-cleavage of 0.04.
Work on U87C A138U yielded a self-cleavage of 0.24.
Work on U87C G105A yielded a self-cleavage of 0.14.
U91A U100A showed a self-cleavage of 0.56.
Variant U85C G97U has a self-cleavage of 0.02.
U85C A124U showed a self-cleavage of 0.21.
For U85C A124G, the self-cleavage was 0.13.
U85A C116U showed a self-cleavage of 0.11.
U85A C116A gave a self-cleavage of 0.
U87C C118U gave a self-cleavage of 0.22.
With U85A A107U the self-cleavage was 0.08.
In the case of U85C G139U, the self-cleavage is reported as 0.22.
Variant U87C U134A has a self-cleavage of 0.18.
In the case of U91A A94G, the self-cleavage is reported as 0.09.
In the case of U91C U96C, the self-cleavage is reported as 0.13.
For U85C A107G, the self-cleavage was 0.15.
Work on C90G U134A yielded a self-cleavage of 0.03.
Work on G86A A136U yielded a self-cleavage of 0.06.
Variant G86A A136G has a self-cleavage of 0.09.
Variant C90U A124U has a self-cleavage of 0.02.
Variant C90U A124G has a self-cleavage of 0.02.
U91C A117G showed a self-cleavage of 0.78.
With U91C A117U the self-cleavage was 0.92.
U87C G126U showed a self-cleavage of 0.3.
In the case of U87C A140G, the self-cleavage is reported as 0.13.
U87C A140U showed a self-cleavage of 0.22.
Variant U91C A124U has a self-cleavage of 0.
For U91C A124G, the self-cleavage was 0.33.
U85C G137A showed a self-cleavage of 0.2.
For G86A A129G, the self-cleavage was 0.05.
For U85G U119A, the self-cleavage was 0.19.
Work on G88A A121U yielded a self-cleavage of 0.04.
For U91C C98U, the self-cleavage was 0.19.
In the case of U91C C99A, the self-cleavage is reported as 0.11.
C84A U130C showed a self-cleavage of 0.15.
In the case of U85C G125C, the self-cleavage is reported as 0.29.
For U85C G125U, the self-cleavage was 0.11.
In the case of U87C C113U, the self-cleavage is reported as 0.
With G86U A129G the self-cleavage was 0.09.
G89A U108C showed a self-cleavage of 0.04.
With U85C A92G the self-cleavage was 0.28.
G86A A142G gave a self-cleavage of 0.06.
For U91A A124G, the self-cleavage was 0.33.
With G89A A141G the self-cleavage was 0.02.
Work on G89A A141U yielded a self-cleavage of 0.02.
With U85G G144A the self-cleavage was 0.21.
U91C showed a self-cleavage of 0.67.
Work on U91A yielded a self-cleavage of 0.58.
Work on G89C A140U yielded a self-cleavage of 0.05.
Work on U87G A94G yielded a self-cleavage of 0.
U85C G105A showed a self-cleavage of 0.12.
Work on U87G U119G yielded a self-cleavage of 0.3.
U85C U102A gave a self-cleavage of 0.18.
For U85C U102G, the self-cleavage was 0.22.
For C84G, the self-cleavage was 0.09.
Work on C84U yielded a self-cleavage of 0.14.
Variant U91A U104C has a self-cleavage of 0.42.
Variant U87A A94U has a self-cleavage of 0.04.
In the case of U87C C111U, the self-cleavage is reported as 0.23.
U91A C116U showed a self-cleavage of 0.53.
With U85C U109G the self-cleavage was 0.
Variant U85G A107G has a self-cleavage of 0.09.
U85G A107U gave a self-cleavage of 0.27.
Work on U85G A136G yielded a self-cleavage of 0.
U87C U96C showed a self-cleavage of 0.27.
For U87A A129G, the self-cleavage was 0.11.
For U85A C113U, the self-cleavage was 0.06.
With C84G C146A the self-cleavage was 0.1.
With G88A U119A the self-cleavage was 0.06.
Work on G88A G97A yielded a self-cleavage of 0.04.
Work on U85A U96G yielded a self-cleavage of 0.15.
Variant U87A A117U has a self-cleavage of 0.04.
For U85A U132C, the self-cleavage was 0.09.
In the case of U87A U132C, the self-cleavage is reported as 0.07.
In the case of U87A U132G, the self-cleavage is reported as 0.1.
U87A U132A showed a self-cleavage of 0.07.
In the case of U91C A136U, the self-cleavage is reported as 0.58.
Work on C84U U87C yielded a self-cleavage of 0.04.
In the case of C84U G89A, the self-cleavage is reported as 0.04.
With U85C C99U the self-cleavage was 0.07.
G86A U96C gave a self-cleavage of 0.05.
Work on U91A U143G yielded a self-cleavage of 0.56.
In the case of G89A U112A, the self-cleavage is reported as 0.05.
Work on C90A U134A yielded a self-cleavage of 0.04.
U87A A136U showed a self-cleavage of 0.1.
C90U A117G showed a self-cleavage of 0.06.
Variant U85C A140G has a self-cleavage of 0.15.
Work on U85A A124C yielded a self-cleavage of 0.08.
With U85A A124G the self-cleavage was 0.04.
U85C U134G showed a self-cleavage of 0.14.
U85C U134A showed a self-cleavage of 0.14.
With U85C U134C the self-cleavage was 0.26.
U87C A121G showed a self-cleavage of 0.15.
Variant U85G A138G has a self-cleavage of 0.22.
Work on G86A C110U yielded a self-cleavage of 0.09.
